Measurements taken from the supplement of paper PMC5998384.

What was measured:
HeLa Kyoto [1] = experiment: solubility in G1/S (NP-40 vs SDS abundance) (log2 ratio); higher = more soluble; details: cell cycle stage: G1/S
HeLa Kyoto [2] = experiment: melting temperature (median over replicates), in situ; higher = more thermally stable
HeLa Kyoto [3] = experiment: solubility change mitosis vs G1/S (difference of NP-40 vs SDS log2 ratios) (log2 ratio difference); higher = more soluble in mitosis
HeLa Kyoto [4] = experiment: thermal stability score vs G1/S (z-score of summed log2 fold changes over temperatures); higher = more thermally stable than in G1/S
[5] = cell cycle stage: early G1 (4.5 h after nocodazole release)
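Wherever melting temperature (median over replicates), in situ is given: HeLa Kyoto cells synchronized by double thymidine or nocodazole block, proteins quantified by TMT10plex mass spectrometry, three independent biological replicates.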
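Wherever solubility change mitosis vs G1/S (difference of NP-40 vs SDS log2 ratios) is given: synchronized HeLa Kyoto cells (double thymidine block for G1/S, nocodazole release for mitosis), protein amounts in NP-40 versus SDS lysates quantified by mass spectrometry, three biological replicates.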
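Wherever solubility in G1/S (NP-40 vs SDS abundance) is given: HeLa Kyoto cells arrested at G1/S by double thymidine block, proteins quantified by TMT10plex mass spectrometry in mild NP-40 versus SDS extracts, three biological replicates.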
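Wherever thermal stability score vs G1/S (z-score of summed log2 fold changes over temperatures) is given: synchronized HeLa Kyoto cells, proteins quantified by TMT10plex mass spectrometry, three biological replicates, mitosis taken 0.5 h after nocodazole release, G1/S directly after double thymidine block.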

Substance	solubility in G1/S (log2) (HeLa Kyoto [1])	melting temperature (HeLa Kyoto [2]; cell cycle stage: G1/S)	melting temperature (HeLa Kyoto [2]; cell cycle stage: mitosis)	solubility change mitosis (log2) (HeLa Kyoto [3])	thermal stability score (HeLa Kyoto [4]; [5])	thermal stability score (HeLa Kyoto [4]; cell cycle stage: mitosis)
MIKKFDKKDEESGSGSNPFQHLEKSAVLQEARIFNETPINPRRCLHILTKILYLLNQGEHFGTTEATEAFFAMTRLFQSNDQTLRRMCYLTIKEMATISEDVIIVTSSLTKDMTGKEDVYRGPAIRALCRITDGTMLQAIERYMKQAIVDKVSSVSSSALVSSLHMMKISYDVVKRWINEAQEAASSDNIMVQYHALGVLYHLRKNDRLAVSKMLNKFTKSGLKSQFAYCMLIRIASRLLKETEDGHESPLFDFIESCLRNKHEMVIYEAASAIIHLPNCTARELAPAVSVLQLFCSSPKPALRYAAVRTLNKVAMKHPSAVTACNLDLENLITDSNRSIATLAITTLLKTGSESSVDRLMKQISSFVSEISDEFKVVVVQAISALCQKYPRKHSVMMTFLSNMLRDDGGFEYKRAIVDCIISIVEENPESKEAGLAHLCEFIEDCEHTVLATKILHLLGKEGPRTPVPSKYIRFIFNRVVLENEAVRAAAVSALAKFGAQNESLLPSILVLLQRCMMDTDDEVRDRATFYLNVLQQRQMALNATYIFNGLTVSVPGMEKALHQYTLEPSEKPFDMKSIPLAMAPVFEQKAEITLVATKPEKLAPSRQDIFQEQLAAIPEFLNIGPLFKSSEPVQLTEAETEYFVRCIKHMFTNHIVFQFDCTNTLNDQLLEKVTVQMEPSDSYEVLSCIPAPSLPYNQPGICYTLVRLPDDDPTAVAGSFSCTMKFTVRDCDPNTGVPDEDGYDDEYVLEDLEVTVSDHIQKVLKPNFAAAWEEVGDTFEKEETFALSSTKTLEEAVNNIITFLGMQPCERSDKVPENKNSHSLYLAGIFRGGYDLLVRSRLALADGVTMQVTVRSKERTPVDVILASVG [COPG2]	-0.192	52 °C	51.8 °C	-0.304	0.652	0.0351
MVDREQLVQKARLAEQAERYDDMAAAMKNVTELNEPLSNEERNLLSVAYKNVVGARRSSWRVISSIEQKTSADGNEKKIEMVRAYREKIEKELEAVCQDVLSLLDNYLIKNCSETQYESKVFYLKMKGDYYRYLAEVATGEKRATVVESSEKAYSEAHEISKEHMQPTHPIRLGLALNYSVFYYEIQNAPEQACHLAKTAFDDAIAELDTLNEDSYKDSTLIMQLLRDNLTLWTSDQQDDDGGEGNN [YWHAG]	0.35	55.1 °C	54.8 °C	0.206	-2.23	-4.24
MSSTLAKIAEIEAEMARTQKNKATAHHLGLLKARLAKLRRELITPKGGGGGGPGEGFDVAKTGDARIGFVGFPSVGKSTLLSNLAGVYSEVAAYEFTTLTTVPGVIRYKGAKIQLLDLPGIIEGAKDGKGRGRQVIAVARTCNLILIVLDVLKPLGHKKIIENELEGFGIRLNSKPPNIGFKKKDKGGINLTATCPQSELDAETVKSILAEYKIHNADVTLRSDATADDLIDVVEGNRVYIPCIYVLNKIDQISIEELDIIYKVPHCVPISAHHRWNFDDLLEKIWDYLKLVRIYTKPKGQLPDYTSPVVLPYSRTTVEDFCMKIHKNLIKEFKYALVWGLSVKHNPQKVGKDHTLEDEDVIQIVKK [DRG1]	0.118	53.8 °C	53.4 °C	-0.0219	-0.58	-2.04
MKFLLDILLLLPLLIVCSLESFVKLFIPKRRKSVTGEIVLITGAGHGIGRLTAYEFAKLKSKLVLWDINKHGLEETAAKCKGLGAKVHTFVVDCSNREDIYSSAKKVKAEIGDVSILVNNAGVVYTSDLFATQDPQIEKTFEVNVLAHFWTTKAFLPAMTKNNHGHIVTVASAAGHVSVPFLLAYCSSKFAAVGFHKTLTDELAALQITGVKTTCLCPNFVNTGFIKNPSTSLGPTLEPEEVVNRLMHGILTEQKMIFIPSSIAFLTTLERILPERFLAVLKRKISVKFDAVIGYKMKAQ [HSD17B11]	-0.334	55.1 °C	54.8 °C	-0.138	0.073	-3.33
MAAPGSCALWSYCGRGWSRAMRGCQLLGLRSSWPGDLLSARLLSQEKRAAETHFGFETVSEEEKGGKVYQVFESVAKKYDVMNDMMSLGIHRVWKDLLLWKMHPLPGTQLLDVAGGTGDIAFRFLNYVQSQHQRKQKRQLRAQQNLSWEEIAKEYQNEEDSLGGSRVVVCDINKEMLKVGKQKALAQGYRAGLAWVLGDAEELPFDDDKFDIYTIAFGIRNVTHIDQALQEAHRVLKPGGRFLCLEFSQVNNPLISRLYDLYSFQVIPVLGEVIAGDWKSYQYLVESIRRFPSQEEFKDMIEDAGFHKVTYESLTSGIVAIHSGFKL [COQ5]	-0.0892	54.4 °C	56.3 °C	0.0212	-1.07	-0.586
MAAVAGSGAAAAPSSLLLVVGSEFGSPGLLTYVLEELERGIRSWDVDPGVCNLDEQLKVFVSRHSATFSSIVKGQRSLHHRGDNLETLVLLNPSDKSLYDELRNLLLDPASHKLLVLAGPCLEETGELLLQTGGFSPHHFLQVLKDREIRDILATTPPPVQPPILTITCPTFGDWAQLAPAVPGLQGALRLQLRLNPPAQLPNSEGLCEFLEYVAESLEPPSPFELLEPPTSGGFLRLGRPCCYIFPGGLGDAAFFAVNGFTVLVNGGSNPKSSFWKLVRHLDRVDAVLVTHPGADSLPGLNSLLRRKLAERSEVAAGGGSWDDRLRRLISPNLGVVFFNACEAASRLARGEDEAELALSLLAQLGITPLPLSRGPVPAKPTVLFEKMGVGRLDMYVLHPPSAGAERTLASVCALLVWHPAGPGEKVVRVLFPGCTPPACLLDGLVRLQHLRFLREPVVTPQDLEGPGRAESKESVGSRDSSKREGLLATHPRPGQERPGVARKEPARAEAPRKTEKEAKTPRELKKDPKPSVSRTQPREVRRAASSVPNLKKTNAQAAPKPRKAPSTSHSGFPPVANGPRSPPSLRCGEASPPSAACGSPASQLVATPSLELGPIPAGEEKALELPLAASSIPRPRTPSPESHRSPAEGSERLSLSPLRGGEAGPDASPTVTTPTVTTPSLPAEVGSPHSTEVDESLSVSFEQVLPPSAPTSEAGLSLPLRGPRARRSASPHDVDLCLVSPCEFEHRKAVPMAPAPASPGSSNDSSARSQERAGGLGAEETPPTSVSESLPTLSDSDPVPLAPGAADSDEDTEGFGVPRHDPLPDPLKVPPPLPDPSSICMVDPEMLPPKTARQTENVSRTRKPLARPNSRAAAPKATPVAAAKTKGLAGGDRASRPLSARSEPSEKGGRAPLSRKSSTPKTATRGPSGSASSRPGVSATPPKSPVYLDLAYLPSGSSAHLVDEEFFQRVRALCYVISGQDQRKEEGMRAVLDALLASKQHWDRDLQVTLIPTFDSVAMHTWYAETHARHQALGITVLGSNSMVSMQDDAFPACKVEF [MAP1S]	0.287	50.4 °C	49.8 °C	-0.216	-0.227	-0.265
MHSRGREIVVLLNPWSINEAVSSYCTYFIKQDSKSFGIMVSWKGIYFILTLFWGSFFGSIFMLSPFLPLMFVNPSWYRWINNRLVATWLTLPVALLETMFGVKVIITGDAFVPGERSVIIMNHRTRMDWMFLWNCLMRYSYLRLEKICLKASLKGVPGFGWAMQAAAYIFIHRKWKDDKSHFEDMIDYFCDIHEPLQLLIFPEGTDLTENSKSRSNAFAEKNGLQKYEYVLHPRTTGFTFVVDRLREGKNLDAVHDITVAYPHNIPQSEKHLLQGDFPREIHFHVHRYPIDTLPTSKEDLQLWCHKRWEEKEERLRSFYQGEKNFYFTGQSVIPPCKSELRVLVVKLLSILYWTLFSPAMCLLIYLYSLVKWYFIITIVIFVLQERIFGGLEIIELACYRLLHKQPHLNSKKNE [LCLAT1]	-0.201	55.1 °C	54.7 °C	-0.165	-2.01	-2.82
MATALALRSLYRARPSLRCPPVELPWAPRRGHRLSPADDELYQRTRISLLQREAAQAMYIDSYNSRGFMINGNRVLGPCALLPHSVVQWNVGSHQDITEDSFSLFWLLEPRIEIVVVGTGDRTERLQSQVLQAMRQRGIAVEVQDTPNACATFNFLCHEGRVTGAALIPPPGGTSLTSLGQAAQ [NDUFAF3]	0.117	53.4 °C	53.5 °C	-0.0203	-0.2	-2.08
GCC2	0.461	48.9 °C	49.4 °C	-0.00143	0.337	1.48
MEGDAVEAIVEESETFIKGKERKTYQRRREGGQEEDACHLPQNQTDGGEVVQDVNSSVQMVMMEQLDPTLLQMKTEVMEGTVAPEAEAAVDDTQIITLQVVNMEEQPINIGELQLVQVPVPVTVPVATTSVEELQGAYENEVSKEGLAESEPMICHTLPLPEGFQVVKVGANGEVETLEQGELPPQEDPSWQKDPDYQPPAKKTKKTKKSKLRYTEEGKDVDVSVYDFEEEQQEGLLSEVNAEKVVGNMKPPKPTKIKKKGVKKTFQCELCSYTCPRRSNLDRHMKSHTDERPHKCHLCGRAFRTVTLLRNHLNTHTGTRPHKCPDCDMAFVTSGELVRHRRYKHTHEKPFKCSMCDYASVEVSKLKRHIRSHTGERPFQCSLCSYASRDTYKLKRHMRTHSGEKPYECYICHARFTQSGTMKMHILQKHTENVAKFHCPHCDTVIARKSDLGVHLRKQHSYIEQGKKCRYCDAVFHERYALIQHQKSHKNEKRFKCDQCDYACRQERHMIMHKRTHTGEKPYACSHCDKTFRQKQLLDMHFKRYHDPNFVPAAFVCSKCGKTFTRRNTMARHADNCAGPDGVEGENGGETKKSKRGRKRKMRSKKEDSSDSENAEPDLDDNEDEEEPAVEIEPEPEPQPVTPAPPPAKKRRGRPPGRTNQPKQNQPTAIIQVEDQNTGAIENIIVEVKKEPDAEPAEGEEEEAQPAATDAPNGDLTPEMILSMMDR [CTCF]	-0.451	55.5 °C	54.4 °C	0.0343	-1.57	-1.93
PHF3	-0.532	53.2 °C	53.7 °C	0.194	0.714	2.75
MSPTQWDFPVELCCRPMAFVTLTGLDVVYNAVHRAVWDAFCANRRADRVPISFKVLPGDHEYPKCRPKRTSYEWYIPKGILKTGWMNKHLNLVPALVVVFYELDWDEPQWKEKQSECATRVEIVRQSLQGRNTKVAVVLIQKKTPLPPGEDVIASERAAALCNACELSGKSLFVLPHTDHLVGYIIRLENAFYEHAQTYYYTEIRRVKSHKEFLNKTTHQLLFVRHQFKIAFFSELKQDTQNALKNYRTAYNLVHELRAHETNILEIKTMAGFINYKICRLCFQHNTPLDAIAQFRKHIDLCKKKIGSAELSFEHDAWMSKQFQAFGDLFDEAIKLGLTAIQTQNPGFYYQQAAYYAQERKQLAKTLCNHEASVMYPNPDPLETQTGVLDFYGQRSWRQGILSFDLSDPEKEKVGILAIQLKERNVVHSEIIITLLSNAVAQFKKYKCPRMKSHLMVQMGEEYYYAKDYTKALKLLDYVMCDYRSEGWWTLLTSVLTTALKCSYLMAQLKDYITYSLELLGRASTLKDDQKSRIEKNLINVLMNESPDPEPDCDILAVKTAQKLWADRISLAGSNIFTIGVQDFVPFVQCKAKFHAPSFHVDVPVQFDIYLKADCPHPIRFSKLCVSFNNQEYNQFCVIEEASKANEVLENLTQGKMCLVPGKTRKLLFKFVAKTEDVGKKIEITSVDLALGNETGRCVVLNWQGGGGDAASSQEALQAARSFKRRPKLPDNEVHWDSIIIQASTMIISRVPNISVHLLHEPPALTNEMYCLVVTVQSHEKTQIRDVKLTAGLKPGQDANLTQKTHVTLHGTELCDESYPALLTDIPVGDLHPGEQLEKMLYVRCGTVGSRMFLVYVSYLINTTVEEKEIVCKCHKDETVTIETVFPFDVAVKFVSTKFEHLERVYADIPFLLMTDLLSASPWALTIVSSELQLAPSMTTVDQLESQVDNVILQTGESASECFCLQCPSLGNIEGGVATGHYIISWKRTSAMENIPIITTVITLPHVIVENIPLHVNADLPSFGRVRESLPVKYHLQNKTDLVQDVEISVEPSDAFMFSGLKQIRLRILPGTEQEMLYNFYPLMAGYQQLPSLNINLLRFPNFTNQLLRRFIPTSIFVKPQGRLMDDTSIAAA [TRAPPC11]	-0.13	50.7 °C	50.3 °C	-0.216	0.0283	-0.012
